Target: DP10.7 TCR (Vγ4Vδ1), soluble recombinant γδ TCR (human)
Experiment: SPR

KD without sulfatide (CD1d loaded with 24:1 βGalCer): > 100 µM
Substance: soluble, recombinant human CD1d (heterodimer with β2-microglobulin) (from UniProt P15813 20-301; P61769 21-119) (complex)

Source: PMC3875342
